Source: the supplement of paper PMC10724198
± gives the standard deviation of the averaged measurements.

tested on: Saccharomyces cerevisiae; assay: protein stability index of tFT-peptide fusion (C-terminal peptide) (PSI (0-1 scale)); higher = more stable (slower turnover); conditions: genetic background: wild type; temperature: 30 C
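Further: PSI is a weighted mean of sequencing reads over stability bins, variants kept only with over 10 reads, mCherry proximal and sfGFP distal, peptide attached via GGGS linker.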

NSFTYWYGGCIL and NSSPVRSSCLSA are within error of each other in protein stability index: 0.802 ± 0.28 for the first, 0.6881 ± 0.0038 for the second.

NSTERDNGIRKE and NTKNPRPQDPQQ are within error of each other in protein stability index: 0.6686 ± 0.0065 for the first, 0.651 ± 0.013 for the second.

NTTFISRRLPPR and NVNNNICTYRAI are within error of each other in protein stability index: 0.687 ± 0.0089 for the first, 0.6776 ± 0.0046 for the second.

Going from NVVFGCFFPVLT to NYNGVRRYNGFK, the protein stability index falls from 0.684 ± 0.04 to 0.574 ± 0.052.

Compared with PAACPTRTCLYP, PALPPPAPLPLS is lower in protein stability index: 0.719 ± 0.045 for the first, 0.67261 ± 0.00022 for the second.

PALPPPPLLSSS and PALPPPPSPPLL are within error of each other in protein stability index: 0.705 ± 0.012 for the first, 0.754 ± 0.052 for the second.

PALQHTVPPPPQ and PANGKQNRGKRR are within error of each other in protein stability index: 0.579 ± 0.012 for the first, 0.645 ± 0.078 for the second.

Going from PAPCAPLLTHRP to PAPCPSPPAPAV, the protein stability index rises from 0.6614 ± 0.0025 to 0.708 ± 0.029.

Compared with PAPLFFCAPFFF, PAPLSIPSTLTT is lower in protein stability index: 0.715 ± 0.034 for the first, 0.609 ± 0.053 for the second.

PAPPLPLAPPPL and PAPPSHLLLPLL are within error of each other in protein stability index: 0.771 ± 0.025 for the first, 0.768 ± 0.067 for the second.

PAPPSPPPHSSP and PAPRPAPPSLPP are within error of each other in protein stability index: 0.751 ± 0.063 for the first, 0.709 ± 0.015 for the second.

PAPSPPPPRPLP and PARRPPPTPSSS are within error of each other in protein stability index: 0.716 ± 0.1 for the first, 0.631 ± 0.064 for the second.

PASPPLRALSSL and PASQPPTPPPRS are within error of each other in protein stability index: 0.81 ± 0.075 for the first, 0.675 ± 0.11 for the second.

PASSTLRPPAHP and PAVHLYFIPPTG are within error of each other in protein stability index: 0.723 ± 0.18 for the first, 0.644 ± 0.038 for the second.

PAVSRPPLPSVH and PCAPHPPPWVVL are within error of each other in protein stability index: 0.7 ± 0.089 for the first, 0.6058 ± 0.0056 for the second.

PCDWEGCVAMNV and PCFSCPPLFLRT are within error of each other in protein stability index: 0.649 ± 0.055 for the first, 0.631 ± 0.067 for the second.

First: PCGTPHVRPLAT
Second: PCLPCVDRGMRG
The protein stability index of the first is higher: 0.719 ± 0.025 for the first, 0.6663 ± 0.00079 for the second.

PCLTCKARSIWL and PCPAPPPASSSP are within error of each other in protein stability index: 0.672 ± 0.033 for the first, 0.728 ± 0.16 for the second.

PCPLPVLDASQF and PCSRVICASEFT are within error of each other in protein stability index: 0.7158 ± 0.0053 for the first, 0.701 ± 0.045 for the second.

PDAGTSSLQTLT and PDCPCVAVCSDI are within error of each other in protein stability index: 0.722 ± 0.036 for the first, 0.728 ± 0.032 for the second.

PDCQSIIRLTTG and PDCVRVSGLGLS are within error of each other in protein stability index: 0.752 ± 0.098 for the first, 0.665 ± 0.045 for the second.

PDHPTLPRRNPL and PDPPPTRPFPAP are within error of each other in protein stability index: 0.743 ± 0.039 for the first, 0.672 ± 0.045 for the second.

PDPPTQPTRRSR and PDPTLPTPSRPP are within error of each other in protein stability index: 0.686 ± 0.029 for the first, 0.642 ± 0.024 for the second.

Going from PDYPYQDQLARL to PEEPSANWTGFF, the protein stability index falls from 0.784 ± 0.058 to 0.598 ± 0.033.

Compared with PEESSSEGSVKR, PEGQRNRDAQSA is higher in protein stability index: 0.67927 ± 0.00039 for the first, 0.7125 ± 0.0026 for the second.

First: PEIKKNRTVSIV
Second: PEMELEKRNQHN
The protein stability index of the first is lower: 0.664 ± 0.011 for the first, 0.716 ± 0.015 for the second.

PENKSLITSPRV and PESPGSPEIRHR are within error of each other in protein stability index: 0.628 ± 0.098 for the first, 0.75 ± 0.053 for the second.

Compared with PFALPPPPPLVP, PFCCALPSPPSP is lower in protein stability index: 0.69 ± 0.0078 for the first, 0.6145 ± 0.0055 for the second.

PFCGSPARTTAV and PFCKTDHMSMTV are within error of each other in protein stability index: 0.642 ± 0.052 for the first, 0.682 ± 0.039 for the second.

PFFHFLGFSYFC and PFFLAFPPSPPT are within error of each other in protein stability index: 0.684 ± 0.024 for the first, 0.723 ± 0.029 for the second.

Going from PFFPSQFFLFFS to PFFSPLPPSPPP, the protein stability index rises from 0.6477 ± 0.0048 to 0.767 ± 0.11.

PFGRETCLTSVP and PFHCLPRPPCYW are within error of each other in protein stability index: 0.648 ± 0.03 for the first, 0.708 ± 0.14 for the second.

First: PFHPSPLPAPHF
Second: PFLAWTILPLTY
The protein stability index of the first is lower: 0.638 ± 0.036 for the first, 0.701 ± 0.0074 for the second.

PFLLVSHESSLE and PFPPPSTPASLY are within error of each other in protein stability index: 0.718 ± 0.0077 for the first, 0.772 ± 0.11 for the second.

PFPRPAFPPYFP and PFPRPALPAYQS are within error of each other in protein stability index: 0.746 ± 0.047 for the first, 0.705 ± 0.018 for the second.

PFPSLCFPPLNG and PFPSPPAPPPLP are within error of each other in protein stability index: 0.727 ± 0.055 for the first, 0.672 ± 0.048 for the second.

PFRPPPPPSSPP and PFSFSSLSASVF are within error of each other in protein stability index: 0.735 ± 0.037 for the first, 0.7033 ± 0.0025 for the second.

PFSRIFSPLSLL and PFSSVATFLSRL are within error of each other in protein stability index: 0.68 ± 0.045 for the first, 0.854 ± 0.17 for the second.

First: PFVLVSDAHLIT
Second: PFYVEAVEKPEH
The protein stability index of the first is lower: 0.66 ± 0.035 for the first, 0.855 ± 0.035 for the second.

PGAGGLSLVVRR and PGAVNRASDGEV are within error of each other in protein stability index: 0.654 ± 0.053 for the first, 0.6061 ± 0.005 for the second.

PGCGRKSAFGLT and PGCPRDRLLLQL are within error of each other in protein stability index: 0.699 ± 0.037 for the first, 0.67 ± 0.025 for the second.

PGCSFSYYFFAV and PGDVSFALARNG are within error of each other in protein stability index: 0.5725 ± 0.0016 for the first, 0.624 ± 0.074 for the second.

PGGRPAAGALRV and PGLCGGRRCVAL are within error of each other in protein stability index: 0.685 ± 0.065 for the first, 0.638 ± 0.073 for the second.

PGLNHLTPMLPP and PGLPGHLPPLPL are within error of each other in protein stability index: 0.635 ± 0.038 for the first, 0.62033 ± 0.00011 for the second.

PGLRSQQLIAPI and PGPCLLFPPFPP are within error of each other in protein stability index: 0.652 ± 0.069 for the first, 0.643 ± 0.012 for the second.

First: PGPPADLAPPPP
Second: PGPPYPPPPLHP
The protein stability index of the first is higher: 0.753 ± 0.018 for the first, 0.716 ± 0.008 for the second.

PGRLPPPFASFF and PGSKLGPAASRG are within error of each other in protein stability index: 0.687 ± 0.0091 for the first, 0.663 ± 0.071 for the second.

PGSPPGLERLGR and PGSPPPPDTLSP are within error of each other in protein stability index: 0.694 ± 0.059 for the first, 0.701 ± 0.034 for the second.

PGTLPDDLASTR and PGVGRLGRTPVS are within error of each other in protein stability index: 0.673 ± 0.034 for the first, 0.6959 ± 0.0054 for the second.

PHHLLTAHPPPA and PHLAAPAPALQD are within error of each other in protein stability index: 0.668 ± 0.035 for the first, 0.613 ± 0.056 for the second.

First: PHLPPLLTTTPS
Second: PHLPPQPPSPPA
The protein stability index of the first is lower: 0.61 ± 0.023 for the first, 0.716 ± 0.045 for the second.

PHLRPPPPPPPQ and PHLSRSVSKVLR are within error of each other in protein stability index: 0.6892 ± 0.0049 for the first, 0.659 ± 0.066 for the second.

PHPLPLPLPLSP and PHPPPPPPPHSP are within error of each other in protein stability index: 0.7134 ± 0.0017 for the first, 0.715 ± 0.08 for the second.

First: PHPPPTAPGPSP
Second: PHPRFYPSTPPP
The protein stability index of the first is higher: 0.67 ± 0.00026 for the first, 0.64827 ± 7.8e-06 for the second.

PHPRRSTKTQRR and PHPTPGTPEPRD are within error of each other in protein stability index: 0.7878 ± 0.0045 for the first, 0.744 ± 0.17 for the second.

First: PHSLPPPTPPHS
Second: PHSPLSPAPQSP
The protein stability index of the first is lower: 0.629 ± 0.047 for the first, 0.787 ± 0.02 for the second.

PHTFNVRPFHPD and PHTLKPNPLSTA are within error of each other in protein stability index: 0.674 ± 0.034 for the first, 0.61 ± 0.063 for the second.

Going from PHTLPPLLRHAP to PHVCPVLSAAGR, the protein stability index falls from 0.693 ± 0.015 to 0.629 ± 0.044.

Going from PHYCSAYTAGHG to PIELTQRASVPP, the protein stability index falls from 0.72 ± 0.036 to 0.6592 ± 0.0052.

First: PIFPALPRLSPS
Second: PIFPFSFFLPLI
The protein stability index of the first is higher: 0.725 ± 0.022 for the first, 0.605 ± 0.011 for the second.

Compared with PIFPPLTSPSPP, PILSGILFMSPP is higher in protein stability index: 0.68 ± 0.032 for the first, 0.755 ± 0.0092 for the second.

PIPPRLPPPPPP and PISLSFPPPLHP are within error of each other in protein stability index: 0.589 ± 0.057 for the first, 0.65 ± 0.017 for the second.

PKKNQSKQRKKT and PKTPRFWLLFPA are within error of each other in protein stability index: 0.708 ± 0.05 for the first, 0.699 ± 0.022 for the second.

PKTSTPPPTSPA and PLALARSPPPSP are within error of each other in protein stability index: 0.675 ± 0.0073 for the first, 0.671 ± 0.02 for the second.

First: PLALLHSHPPAN
Second: PLAPLLSPPAFP
The protein stability index of the first is lower: 0.677 ± 0.0066 for the first, 0.808 ± 0.12 for the second.

First: PLAPPLPPPGPL
Second: PLAPPSPPPAPP
The protein stability index of the first is higher: 0.74 ± 0.022 for the first, 0.6618 ± 0.00085 for the second.

PLCVICRRWGAS and PLEPDFLIGGNA are within error of each other in protein stability index: 0.646 ± 0.046 for the first, 0.807 ± 0.16 for the second.

PLEYPAQATMKP and PLFLPLVPPQIL are within error of each other in protein stability index: 0.657 ± 0.021 for the first, 0.682 ± 0.028 for the second.

First: PLFPPPSLLTPH
Second: PLGGPYNSHMFT
The protein stability index of the first is lower: 0.719 ± 0.14 for the first, 0.956 ± 0.038 for the second.

Going from PLHLLPPPSSYP to PLHPDSCGSLSS, the protein stability index falls from 0.759 ± 0.033 to 0.647 ± 0.038.

Compared with PLHPPATPAATT, PLHRPLPRPPSP is higher in protein stability index: 0.69 ± 0.025 for the first, 0.745 ± 0.019 for the second.

PLLHDSHAIIPH and PLLPLLPSPASP are within error of each other in protein stability index: 0.716 ± 0.079 for the first, 0.674 ± 0.0098 for the second.

PLLPRLPPLSPP and PLLRRLFPLSSR are within error of each other in protein stability index: 0.691 ± 0.07 for the first, 0.608 ± 0.052 for the second.

PLLYSDRPSIFL and PLNPSPSCPPTL are within error of each other in protein stability index: 0.663 ± 0.026 for the first, 0.676 ± 0.023 for the second.

Going from PLPAPSPLPSPL to PLPCLPPAGSTP, the protein stability index rises from 0.735 ± 0.038 to 0.818 ± 0.02.

PLPFSTSPYAGR and PLPHPPPLALRT are within error of each other in protein stability index: 0.675 ± 0.011 for the first, 0.655 ± 0.063 for the second.

PLPKARRHHSPA and PLPLPSLSAIFL are within error of each other in protein stability index: 0.653 ± 0.033 for the first, 0.677 ± 0.016 for the second.

Compared with PLPLPSPPPASP, PLPLSPLLLPPR is lower in protein stability index: 0.732 ± 0.025 for the first, 0.6836 ± 0.0045 for the second.

Compared with PLPPAPPSLSPP, PLPPHPPPPRPL is higher in protein stability index: 0.651 ± 0.01 for the first, 0.698 ± 0.035 for the second.

PLPPLAPPHRSP and PLPPLLAGAGLS are within error of each other in protein stability index: 0.682 ± 0.091 for the first, 0.704 ± 0.018 for the second.
